The values that follow come from US8129197B2, “Cholesterol loaded insect cell membranes as test proteins” (SOLVO Biotechnológial ZRT., priority 2006, dated 2012).

In one data set the target is T1, mouseBsep (Mus musculus, UniProt Q9QY30).
T1 sequence (Q9QY30 1-1321): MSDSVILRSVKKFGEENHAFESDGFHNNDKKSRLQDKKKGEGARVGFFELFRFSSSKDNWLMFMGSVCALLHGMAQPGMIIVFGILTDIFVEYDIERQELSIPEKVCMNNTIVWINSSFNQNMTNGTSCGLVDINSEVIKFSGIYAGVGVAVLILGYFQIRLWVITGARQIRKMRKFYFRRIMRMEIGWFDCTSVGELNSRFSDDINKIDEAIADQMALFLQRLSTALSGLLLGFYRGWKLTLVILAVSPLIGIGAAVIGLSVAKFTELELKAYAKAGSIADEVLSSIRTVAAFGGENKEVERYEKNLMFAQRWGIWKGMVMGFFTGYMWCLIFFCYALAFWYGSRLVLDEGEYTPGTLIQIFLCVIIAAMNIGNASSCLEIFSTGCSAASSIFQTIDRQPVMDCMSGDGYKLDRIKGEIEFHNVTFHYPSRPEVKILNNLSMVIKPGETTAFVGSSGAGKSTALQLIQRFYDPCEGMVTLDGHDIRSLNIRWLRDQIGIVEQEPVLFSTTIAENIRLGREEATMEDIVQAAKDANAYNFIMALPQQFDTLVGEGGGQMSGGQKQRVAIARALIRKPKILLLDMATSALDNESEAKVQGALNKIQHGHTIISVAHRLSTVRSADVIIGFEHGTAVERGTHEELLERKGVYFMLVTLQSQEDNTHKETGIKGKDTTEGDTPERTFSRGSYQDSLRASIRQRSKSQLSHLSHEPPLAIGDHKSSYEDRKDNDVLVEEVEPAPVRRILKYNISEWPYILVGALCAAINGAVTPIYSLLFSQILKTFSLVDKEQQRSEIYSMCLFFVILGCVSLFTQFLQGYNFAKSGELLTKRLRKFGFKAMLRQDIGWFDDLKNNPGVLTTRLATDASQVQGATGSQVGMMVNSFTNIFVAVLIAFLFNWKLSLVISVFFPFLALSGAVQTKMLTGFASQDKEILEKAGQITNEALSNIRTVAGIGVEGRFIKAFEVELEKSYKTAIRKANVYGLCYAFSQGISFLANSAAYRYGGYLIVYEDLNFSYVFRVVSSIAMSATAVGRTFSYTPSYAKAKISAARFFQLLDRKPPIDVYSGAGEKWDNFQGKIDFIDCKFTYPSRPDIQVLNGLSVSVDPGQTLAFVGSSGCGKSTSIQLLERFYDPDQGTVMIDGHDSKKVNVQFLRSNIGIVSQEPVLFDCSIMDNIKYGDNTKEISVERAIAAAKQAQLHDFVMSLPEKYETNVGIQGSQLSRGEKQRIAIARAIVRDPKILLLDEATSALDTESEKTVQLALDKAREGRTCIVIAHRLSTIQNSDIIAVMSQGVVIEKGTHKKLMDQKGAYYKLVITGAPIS
Nature of the data set: Vanadate sensitive ATPase assay, mouseBsep Sf9 membrane vesicles. It counts as biochemical. The arrangement: made in house; host or cells: baculovirus infected Sf9 (Spodoptera frugiperda) cells. From the text: The samples treated with cholesterol@RAMEB complex were compared with untreated vesicles.

Substrate in data set [1]: C[C@H](CCC(=O)NCCS(=O)(=O)O)[C@H]1CC[C@H]2[C@@H]3[C@H](O)C[C@@H]4C[C@H](O)CC[C@]4(C)[C@H]3C[C@H](O)[C@]12C
Nature of the data set: cells, lysate or membranes named.

Regarding `C[C@H](CCC(=O)NCCS(=O)(=O)O)[C@H]1CC[C@H]2[C@@H]3[C@H](O)C[C@@H]4C[C@H](O)CC[C@]4(C)[C@H]3CC[C@]12C` [taurochenodeoxycholate], the “Vanadate sensitive ATPase activity in the presence of the substrate” value at mouseBsep (cholesterol loaded mouseBsep vesicles, basal 4.7) is 39 nmol Pi/mg prot/min; on mouseBsep (untreated mouseBsep vesicles, basal 37), 64 nmol Pi/mg prot/min.

B1: mouseBsep (Mus musculus) (protein)
chain: T1 sequence (Q9QY30 1-1321)
On to B1, for which the Km in data set [1] (other: mouseBsep-Sf9 CTRL) turned out to be 6.798 µM.

B2: ratBsep (Rattus norvegicus) (protein)
chain: MSDSVILRSVKKFGEENHAFESDGSHNNDKKSRLQDKMKEGDIRVGFFELFRFSSSKDIWLMLMGGVCALLHGMAQPGILIIFGIMTDIFIKYDIERQELEIPGKACVNNTIVWINSSFHQNMTNGTVCGLVDIESEMIKFSGIYAGVGMTVLILGYFQIRLWVITGARQIRRMRKIYFRRIMRMEIGWFDCTSVGELNSRFADDIEKINDAIADQLAHFLQRMSTAMCGLLLGFYRGWKLTLVILAVSPLIGIGAAVIGLSIAKFTELELKAYAKAGSIADEVLSSIRTVAAFGGENKEVERYEKNLVFAQRWGIWKGMVMGFFTGYMWCLIFFCYALAFWYGSTLVLDEEEYTPGTLVQIFLCVILAAMNIGHASSCLEIFSTGCSAATNIFQTIDRQPVIDCMSGDGYKLDRIKGEIEFHNVTFHYPSRPDVKILDNLSMVIKPGETTALVGSSGAGKSTALQLIQRFYDPCEGMVTLDGHDIRSLNIRWLRDQIGIVEQEPVLFSTTIAENIRFGREDATMEDIVQAAKDANAYNFIMALPQQFDTLVGEGGGQMSGGQKQRVAIARALIRNPKILLLDMATSALDNESEARVQEALNKIQHGHTIISVAHRLSTVRAADVIIGFEHGVAVERGTHEELLERKGVYFMLVTLQSQGDNAHKETSIMGKDATEGGTLERTFSRGSYRDSLRASIRQRSKSQLSLLTHDPPLAVADHKSSYKDSKDNDVLVEEVEPAPVRRILKYNIPEWHYILVGSLSAAINGAVTPIYSLLFSQLLGTFSLLDKEQQRSEIHSMCLFFVILGCVSIFTQFLQGYTFAKSGELLTKRLRKFGFKAMLGQDIGWFDDLRNNPGVLTTRLATDASQVQGATGSQVGMMVNSFTNIIAALLIAFFFSWKLSLIITIFFPFLALSGAVQTKMLTGFASQDKQALEKAGQITSEALSNIRTVAGIGVEGRFIKAFEVELQTSYKTAVRKANIYGLCFAFSQGIAFLANSAAYRYGGYLIAYEGLGFSHVFRVVSSVALSATAVGRTFSYTPSYAKAKISAARFFQLLDRKPPINVYSEAGEKWDNFQGKIDFIDCKFTYPSRPDIQVLNGLSVSVNPGQTLAFVGSSGCGKSTSIQLLERFYDPDQGTVMIDGHDSKKVNIQFLRSNIGIVSQEPVLFDCSIMDNIKYGDNTKEISVERAIAAAKQAQLHDFVMSLPEKYETNVGIQGSQLSRGEKQRIAIARAIVRDPKILLLDEATSALDTESEKTVQTALDKAREGRTCIVIAHRLSTIQNSDIIAVVSQGVVIEKGTHEKLMAQKGAYYKLVITGAPIS
For the molecule B2, in data set [1] (other: ratBsep-Sf9 CTRL), the Km was determined as 2.203 µM.

B3: humanBSEP (Homo sapiens) (protein)
chain: MSDSVILRSIKKFGEENDGFESDKSYNNDKKSRLQDEKKGDGVRVGFFQLFRFSSSTDIWLMFVGSLCAFLHGIAQPGVLLIFGTMTDVFIDYDVELQELQIPGKACVNNTIVWTNSSLNQNMTNGTRCGLLNIESEMIKFASYYAGIAVAVLITGYIQICFWVIAAARQIQKMRKFYFRRIMRMEIGWFDCNSVGELNTRFSDDINKINDAIADQMALFIQRMTSTICGFLLGFFRGWKLTLVIISVSPLIGIGAATIGLSVSKFTDYELKAYAKAGVVADEVISSMRTVAAFGGEKREVERYEKNLVFAQRWGIRKGIVMGFFTGFVWCLIFLCYALAFWYGSTLVLDEGEYTPGTLVQIFLSVIVGALNLGNASPCLEAFATGRAAATSIFETIDRKPIIDCMSEDGYKLDRIKGEIEFHNVTFHYPSRPEVKILNDLNMVIKPGEMTALVGPSGAGKSTALQLIQRFYDPCEGMVTVDGHDIRSLNIQWLRDQIGIVEQEPVLFSTTIAENIRYGREDATMEDIVQAAKEANAYNFIMDLPQQFDTLVGEGGGQMSGGQKQRVAIARALIRNPKILLLDMATSALDNESEAMVQEVLSKIQHGHTIISVAHRLSTVRAADTIIGFEHGTAVERGTHEELLERKGVYFTLVTLQSQGNQALNEEDIKDATEDDMLARTFSRGSYQDSLRASIRQRSKSQLSYLVHEPPLAVVDHKSTYEEDRKDKDIPVQEEVEPAPVRRILKFSAPEWPYMLVGSVGAAVNGTVTPLYAFLFSQILGTFSIPDKEEQRSQINGVCLLFVAMGCVSLFTQFLQGYAFAKSGELLTKRLRKFGFRAMLGQDIAWFDDLRNSPGALTTRLATDASQVQGAAGSQIGMIVNSFTNVTVAMIIAFSFSWKLSLVILCFFPFLALSGATQTRMLTGFASRDKQALEMVGQITNEALSNIRTVAGIGKERRFIEALETELEKPFKTAIQKANIYGFCFAFAQCIMFIANSASYRYGGYLISNEGLHFSYVFRVISAVVLSATALGRAFSYTPSYAKAKISAARFFQLLDRQPPISVYNTAGEKWDNFQGKIDFVDCKFTYPSRPDSQVLNGLSVSISPGQTLAFVGSSGCGKSTSIQLLERFYDPDQGKVMIDGHDSKKVNVQFLRSNIGIVSQEPVLFACSIMDNIKYGDNTKEIPMERVIAAAKQAQLHDFVMSLPEKYETNVGSQGSQLSRGEKQRIAIARAIVRDPKILLLDEATSALDTESEKTVQVALDKAREGRTCIVIAHRLSTIQNADIIAVMAQGVVIEKGTHEELMAQKGAYYKLVTTGSPIS
Take B3: the Km in data set [1] (other: humanBSEP-Sf9 CTRL) came out at 15.03 µM.
